Residue numbers refer to the chain shown, from its start.
T1: human GIP receptor (human) (UniProt P48546)
T1 sequence (looked up): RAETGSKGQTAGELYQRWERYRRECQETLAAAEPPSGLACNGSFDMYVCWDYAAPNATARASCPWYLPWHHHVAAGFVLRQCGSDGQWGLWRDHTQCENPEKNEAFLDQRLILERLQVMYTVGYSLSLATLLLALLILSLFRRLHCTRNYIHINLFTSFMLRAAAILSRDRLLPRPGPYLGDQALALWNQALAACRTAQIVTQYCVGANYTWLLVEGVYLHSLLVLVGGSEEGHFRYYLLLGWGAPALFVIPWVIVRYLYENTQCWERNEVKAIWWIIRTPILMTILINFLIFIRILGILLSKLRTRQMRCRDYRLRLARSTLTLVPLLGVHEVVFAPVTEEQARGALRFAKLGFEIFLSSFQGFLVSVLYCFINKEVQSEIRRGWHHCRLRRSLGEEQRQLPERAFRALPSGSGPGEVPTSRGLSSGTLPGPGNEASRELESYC

B1: Example 1128 (peptide)
chain: YXQGTFTSDXSQXLDXKAQXQFIQXLIAXGPSSGEPPPSGGGE
modifications: Aib, 4Pal, αMeL, Orn, Me4Pal, αMeY; acylated lysine; amide; synthetic construct; SITE 2: note = 2-Aminoisobutyric Acid; SITE 10: note = 3-(4-Pyridyl)-L-alanine; SITE 13: note = alpha-methyl-leucine; SITE 16: note = L-ornithine; SITE 17: note = Lysine is chemically modified through conjugation of the epsilon-amino group of the Lysine side chain with D-Glutami
B2: Example 1133 (peptide)
chain: B1 chain with S11X, X29G
modifications: not fully specified; non-natural residues; C18 diacid-γGlu-e on Lys; C-terminal amide; synthetic construct; SITE 2: note = 2-Aminoisobutyric Acid; SITE 10: note = 3-(4-Pyridyl)-L-alanine; SITE 11: note = alpha-methyl-L-serine; SITE 13: note = alpha-methyl-leucine; SITE 16: note = L-ornithine; SITE 17: note = Lysine is chemically modified through conjugation of the epsilon-amino group
B3: Example 1129 (peptide)
chain: B1 chain with A28E
modifications: non-natural residues; lysine acylated with C18 diacid; C-terminal amide; synthetic construct; SITE 2: note = 2-Aminoisobutyric Acid; SITE 10: note = 3-(4-Pyridyl)-L-alanine; SITE 13: note = alpha-methyl-leucine; SITE 16: note = L-ornithine; SITE 17: note = Lysine is chemically modified through conjugation of the epsilon-amino group of the Lysine side chain with D-Glutami
B4: Example 1137 (peptide)
chain: B1 chain with S11X, A28E, E35A
modifications: not fully specified; non-natural residues; γ-Glu-C18 diacid acyl; C-terminal amide; synthetic construct; SITE 2: note = 2-Aminoisobutyric Acid; SITE 10: note = 3-(4-Pyridyl)-L-alanine; SITE 11: note = alpha-methyl-L-serine; SITE 13: note = alpha-methyl-leucine; SITE 16: note = L-ornithine; SITE 17: note = Lysine is chemically modified through conjugation of the epsilon-amino group
B5: Example 106 (peptide)
chain: YXQGTFTSDFSXXLDKKAQXAFIEYLLAGGTSSGEPPPSGE
modifications: synthetic construct; SITE 2: note = 2-Aminoisobutyric Acid; SITE 12: note = L-ornithine; SITE 13: note = alpha-methyl-leucine; SITE 17: note = Lysine is chemically modified through conjugation of the epsilon-amino group of the Lysine side chain with (2-[2-(2-Amino-ethoxy)-ethoxy]-acetyl)-(gamma-Glu)
B6: Example 1123 (peptide)
chain: YXQGTFTSDXSQXLDKKAQXAFIEXLIEXGPSSGEPPPSGE
modifications: Aib, 4Pal, αMeL, Me4Pal; acylated Lys; C-terminal amide; synthetic construct; SITE 2: note = 2-Aminoisobutyric Acid; SITE 10: note = 3-(4-Pyridyl)-L-alanine; SITE 13: note = alpha-methyl-leucine; SITE 17: note = Lysine is chemically modified through conjugation of the epsilon-amino group of the Lysine side chain with (gamma-Glu)2-CO-(CH2)16-CO2H; SITE 20:
B7: Example 1143 (peptide)
chain: YXQGTXTSDXXIXLDXKAQXEFIEXLIEGGPSSGEPPPTGE
modifications: Non-natural residues; K acylated AEEA-γGlu-C18 diacid; C-terminal amide; synthetic construct; SITE 2: note = 2-Aminoisobutyric Acid; SITE 6: note = alpha-methyl-2-fluoro-L-phenylalanine; SITE 10: note = 3-(4-Pyridyl)-L-alanine; SITE 11: note = alpha-methyl-L-serine; SITE 13: note = alpha-methyl-leucine; SITE 16: note = L-ornithine; SITE 17: note = Lysine is chemically mo
B8: Example 1147 (peptide)
chain: B7 chain with T39E, G40S
modifications: non-natural residues; K acylated AEEA-γGlu-C18 diacid; C-amide; synthetic construct; SITE 2: note = 2-Aminoisobutyric Acid; SITE 6: note = alpha-methyl-2-fluoro-L-phenylalanine; SITE 10: note = 3-(4-Pyridyl)-L-alanine; SITE 11: note = alpha-methyl-L-serine; SITE 13: note = alpha-methyl-leucine; SITE 16: note = L-ornithine; SITE 17: note = Lysine is chemically mo
B9: Example 1154 (peptide)
chain: B7 chain with I27V, E35A, T39G
modifications: not fully specified; non-natural residues; AEEA-γGlu-C18 diacid acyl; C-terminal amide; synthetic construct; SITE 2: note = 2-Aminoisobutyric Acid; SITE 6: note = alpha-methyl-2-fluoro-L-phenylalanine …; SITE 10: note = 3-(4-Pyridyl)-L-alanine; SITE 11: note = alpha-methyl-L-serine; SITE 13: note = alpha-methyl-leucine; SITE 16: note = L-ornithine; SITE 17: note = Lysine is chemically mo
B10: Example 1151 (peptide)
chain: B7 chain with T39S
modifications: not fully specified; non-natural residues; acylated Lys; C-terminal amide; synthetic construct; SITE 2: note = 2-Aminoisobutyric Acid; SITE 6: note = alpha-methyl-2-fluoro-L-phenylalanine; SITE 10: note = 3-(4-Pyridyl)-L-alanine; SITE 11: note = alpha-methyl-L-serine; SITE 13: note = alpha-methyl-leucine; SITE 16: note = L-ornithine; SITE 17: note = Lysine is chemically mo
B11: Example 1152 (peptide)
chain: B7 chain with I27V, E35A
modifications: not fully specified; acylated lysine AEEA-γGlu-C18 diacid; non-natural residues; C-terminal amide; synthetic construct; SITE 2: note = 2-Aminoisobutyric Acid; SITE 6: note = alpha-methyl-2-fluoro-L-phenylalanine; SITE 10: note = 3-(4-Pyridyl)-L-alanine; SITE 11: note = alpha-methyl-L-serine; SITE 13: note = alpha-methyl-leucine; SITE 16: note = L-ornithine; SITE 17: note = Lysine is chemically mo
B12: Example 1145 (peptide)
chain: B7 chain with T39G
modifications: non-natural residues; lipidated Lys AEEA-γGlu-C18 diacid; C-term amide; synthetic construct; SITE 2: note = 2-Aminoisobutyric Acid; SITE 6: note = alpha-methyl-2-fluoro-L-phenylalanine; SITE 10: note = 3-(4-Pyridyl)-L-alanine; SITE 11: note = alpha-methyl-L-serine; SITE 13: note = alpha-methyl-leucine; SITE 16: note = L-ornithine; SITE 17: note = Lysine is chemically mo
B13: Example 1149 (peptide)
chain: B7 chain with T39E
modifications: non-natural residues; AEEA-γGlu-C18 diacid on Lys; C-terminal amide; synthetic construct; SITE 2: note = 2-Aminoisobutyric Acid; SITE 6: note = alpha-methyl-2-fluoro-L-phenylalanine; SITE 10: note = 3-(4-Pyridyl)-L-alanine; SITE 11: note = alpha-methyl-L-serine; SITE 13: note = alpha-methyl-leucine; SITE 16: note = L-ornithine; SITE 17: note = Lysine is chemically mo
B14: Example 1157 (peptide)
chain: B7 chain with I27V, T39E, G40S
modifications: not fully specified; non-natural residues; lipidated Lys; C-terminal amide; synthetic construct; SITE 2: note = 2-Aminoisobutyric Acid; SITE 6: note = alpha-methyl-2-fluoro-L-phenylalanine; SITE 10: note = 3-(4-Pyridyl)-L-alanine; SITE 11: note = alpha-methyl-L-serine; SITE 13: note = alpha-methyl-leucine; SITE 16: note = L-ornithine; SITE 17: note = Lysine is chemically mo

Target: T1, human GIP receptor (human)
Assay: cell-based or functional assay

Point of comparison: B12, Relative cAMP EC50 0.00689 nM. Against it:
- B1 — 5.5-fold higher, 0.0378 nM
- B2 — 10-fold higher, 0.0719 nM
- B3 — 7-fold higher, 0.048 nM
- B4 — 4.8-fold higher, 0.0334 nM
- B5 — 50-fold higher, 0.345 nM
- B6 — 15-fold higher, 0.101 nM
- B7 — within 1.5-fold, 0.0087 nM
- B8 — within 1.5-fold, 0.00753 nM
- B9 — within 1.5-fold, 0.00879 nM
- B10 — 2-fold lower, 0.00339 nM
- B11 — within 1.5-fold, 0.0101 nM
- B13 — within 1.5-fold, 0.00804 nM
- B14 — 1.8-fold higher, 0.0124 nM

Point of comparison: B7, cAMP Rel EC50 (1% HSA) 0.751 nM. Against it:
- B1 — 4.2-fold higher, 3.18 nM
- B2 — 5.6-fold higher, 4.24 nM
- B3 — 5.5-fold higher, 4.16 nM
- B4 — 2.7-fold higher, 2.05 nM
- B6 — 5.2-fold higher, 3.89 nM
- B8 — within 1.5-fold, 0.831 nM
- B10 — 2.6-fold lower, 0.287 nM
- B12 — within 1.5-fold, 0.848 nM
- B13 — within 1.5-fold, 0.96 nM

B5 showed a cAMP Rel EC50, nM (in the presence of 1% HSA) of 91 nM.

Point of comparison: B14, cAMP Rel EC50 (in the presence of 1% HSA) 1.28 nM. Against it:
- B9 — within 1.5-fold, 0.954 nM
- B11 — within 1.5-fold, 1.21 nM

Target: hGLP-1R (Homo sapiens, UniProt P43220)
Sequence (P43220 24-463): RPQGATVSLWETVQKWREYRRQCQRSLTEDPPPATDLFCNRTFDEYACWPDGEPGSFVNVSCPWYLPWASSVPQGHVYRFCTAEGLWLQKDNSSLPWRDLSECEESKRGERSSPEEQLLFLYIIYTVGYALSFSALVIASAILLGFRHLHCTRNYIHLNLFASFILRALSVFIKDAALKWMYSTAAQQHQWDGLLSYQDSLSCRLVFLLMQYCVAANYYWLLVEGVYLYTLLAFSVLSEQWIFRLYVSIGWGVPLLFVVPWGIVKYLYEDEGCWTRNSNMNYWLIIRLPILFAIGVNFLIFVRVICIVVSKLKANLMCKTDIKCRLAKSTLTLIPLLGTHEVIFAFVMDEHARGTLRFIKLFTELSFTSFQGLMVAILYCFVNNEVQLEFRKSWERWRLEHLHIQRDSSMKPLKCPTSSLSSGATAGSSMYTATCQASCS
Assay: cell-based or functional assay

Point of comparison: B4, Relative cAMP EC50 0.582 nM. Against it:
- B1 — within 1.5-fold, 0.486 nM
- B2 — within 1.5-fold, 0.768 nM
- B3 — within 1.5-fold, 0.501 nM
- B5 — 6.8-fold higher, 3.94 nM
- B6 — 7.7-fold higher, 4.47 nM
- B7 — 1.5-fold lower, 0.381 nM
- B8 — 1.7-fold lower, 0.347 nM
- B9 — 1.7-fold lower, 0.344 nM
- B10 — 2.2-fold lower, 0.262 nM
- B11 — 1.6-fold lower, 0.371 nM
- B12 — 1.9-fold lower, 0.313 nM
- B13 — 1.7-fold lower, 0.352 nM
- B14 — within 1.5-fold, 0.408 nM

Point of comparison: B12, cAMP Rel EC50 (1% HSA) 39.1 nM. Against it:
- B1 — within 1.5-fold, 52.8 nM
- B2 — within 1.5-fold, 47.8 nM
- B3 — within 1.5-fold, 56.6 nM
- B4 — within 1.5-fold, 36.2 nM
- B6 — 4.9-fold higher, 191 nM
- B7 — within 1.5-fold, 49.6 nM
- B8 — within 1.5-fold, 45.4 nM
- B10 — within 1.5-fold, 40 nM
- B13 — within 1.5-fold, 52.2 nM

For B5, the cAMP Rel EC50, nM (in the presence of 1% HSA) was 977 nM.

Point of comparison: B9, cAMP Rel EC50 (in the presence of 1% HSA) 44.5 nM. Against it:
- B11 — within 1.5-fold, 43.8 nM
- B14 — within 1.5-fold, 57.5 nM

Target: human glucagon receptor (human) (UniProt P47871)
Sequence (P47871 26-477): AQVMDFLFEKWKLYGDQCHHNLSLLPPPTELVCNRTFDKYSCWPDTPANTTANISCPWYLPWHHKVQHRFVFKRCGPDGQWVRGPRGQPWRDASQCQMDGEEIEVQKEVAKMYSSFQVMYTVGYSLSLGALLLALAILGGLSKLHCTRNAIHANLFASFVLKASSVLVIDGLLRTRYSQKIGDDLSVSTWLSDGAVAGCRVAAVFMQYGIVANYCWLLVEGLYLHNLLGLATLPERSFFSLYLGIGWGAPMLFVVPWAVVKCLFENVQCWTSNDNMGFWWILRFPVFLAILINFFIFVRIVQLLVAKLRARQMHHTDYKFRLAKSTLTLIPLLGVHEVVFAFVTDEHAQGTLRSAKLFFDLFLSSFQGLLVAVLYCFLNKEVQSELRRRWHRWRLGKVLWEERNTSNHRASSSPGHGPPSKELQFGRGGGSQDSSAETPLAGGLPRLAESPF
Assay: cell-based or functional assay

Point of comparison: B8, Relative cAMP EC50 1.17 nM. Against it:
- B1 — 8.4-fold higher, 9.88 nM
- B2 — 2.5-fold higher, 2.95 nM
- B3 — 5.2-fold higher, 6.11 nM
- B4 — 12-fold higher, 14.2 nM
- B5 — 5.4-fold higher, 6.26 nM
- B6 — 4.7-fold higher, 5.53 nM
- B7 — within 1.5-fold, 1.42 nM
- B9 — 5.5-fold higher, 6.42 nM
- B10 — within 1.5-fold, 1.31 nM
- B11 — 2-fold higher, 2.32 nM
- B12 — within 1.5-fold, 1.07 nM
- B13 — within 1.5-fold, 1.37 nM
- B14 — 1.7-fold higher, 2.04 nM

Point of comparison: B7, cAMP Rel EC50 (1% HSA) 182 nM. Against it:
- B1 — 4.8-fold higher, 869 nM
- B2 — within 1.5-fold, 216 nM
- B3 — 4.4-fold higher, 796 nM
- B4 — 3.6-fold higher, 663 nM
- B6 — 2.4-fold higher, 441 nM
- B8 — within 1.5-fold, 167 nM
- B10 — within 1.5-fold, 206 nM
- B12 — within 1.5-fold, 148 nM
- B13 — within 1.5-fold, 184 nM

With B5 the cAMP Rel EC50, nM (in the presence of 1% HSA) was 2000 nM.

Point of comparison: B9, cAMP Rel EC50 (in the presence of 1% HSA) 320 nM. Against it:
- B11 — within 1.5-fold, 287 nM
- B14 — within 1.5-fold, 384 nM

From patent US20240270821A1, “GIP/GLP1/GCG TRI-RECEPTOR AGONISTS AND USES THEREOF” (priority 2023, published 2024)
